Measurements reported in PMC4011921 (mAbs, 2014).

Key:
human IL-6 = human IL-6 (Homo sapiens, UniProt P05231); test: SPR
cynomolgus IL-6 = cynomolgus IL-6 (cynomolgus, UniProt P79341); test: SPR
cynomolgus IL-6, sequence (P79341 28-212): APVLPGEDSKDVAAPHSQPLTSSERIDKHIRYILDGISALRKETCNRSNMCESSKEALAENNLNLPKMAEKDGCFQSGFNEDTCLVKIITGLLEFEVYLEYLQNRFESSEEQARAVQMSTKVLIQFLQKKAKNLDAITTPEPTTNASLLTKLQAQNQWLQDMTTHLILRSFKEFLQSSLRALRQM

human IL-6, sequence (P05231 30-212): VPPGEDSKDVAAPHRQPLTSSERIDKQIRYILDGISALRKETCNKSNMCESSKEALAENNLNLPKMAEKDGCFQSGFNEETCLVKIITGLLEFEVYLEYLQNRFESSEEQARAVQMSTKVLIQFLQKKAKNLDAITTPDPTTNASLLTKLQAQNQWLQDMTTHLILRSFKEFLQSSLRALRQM

Kd (human IL-6): 0.01 nM | binding result (cynomolgus IL-6): binds
B1: olokizumab (antibody, V domains shown)
VH: EVQLVESGGGLVQPGGSLRLSCAASGFNFNDYFMNWVRQAPGKGLEWVAQMRNKNYQYGTYYAESLEGRFTISRDDSKNSLYLQMNSLKTEDTAVYYCARESYYGFTSYWGQGTLVTVSS
VL: DIQMTQSPSSLSASVGDRVTITCQASQDIGISLSWYQQKPGKAPKLLIYNANNLADGVPSRFSGSGSGTDFTLTISSLQPEDFATYYCLQHNSAPYTFGQGTKLEIK
